Results reported in US20200223903A1 (NEOMATRIX THERAPEUTICS, published 2020).

Legend:
[1] = target: T1, insulin-like growth factor-1 (UniProt P05019 49-118); experiment: SPR (Biacore T200), real time interaction of peptide with growth factor
T1 construct: also called IGF-1
Experimental: (§1) To study the binding activities of these peptides, real time interactions of P12, P46, and cNP8 with growth factors were determined by plasmon surface resonance (Biacore T200).

[2] = target: T2, epidermal growth factor (UniProt P01133 971-1023); experiment: as above
T2 construct: also called EGF
Experimental: as §1

T2 sequence (P01133 971-1023 limits assumed): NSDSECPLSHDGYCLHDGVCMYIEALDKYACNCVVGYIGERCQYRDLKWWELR
T1 sequence (P05019 49-118 limits assumed): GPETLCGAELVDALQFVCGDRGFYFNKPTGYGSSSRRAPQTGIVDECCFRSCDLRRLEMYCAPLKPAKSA

B1: cNP8, cyclic HIGKYGLRWRPKGSV, elastase-resistant engineered peptide derived from P46 (peptide)
peptide: HIGKYGLRWRPKGSV
modifications: cyclic: N terminus amino acid bound to the C terminus amino acid
notes: also called cyclic NP8
B1: no binding [1]; no binding [2].

B2: P12 (PSHISKYILRWRPK), 14-residue peptide of fibronectin's first type III repeat (peptide)
peptide: PSHISKYILRWRPK
notes: Linear P12 as named in the SPR paragraph
B2: no binding [1]; no binding [2].

B3: P46 (HISKYILRWRPKNSV), fibronectin-derived peptide (peptide)
peptide: HISKYILRWRPKNSV
notes: Found as an elastase digestion product of FNIII1-C and then synthesized; Linear
B3: no binding [1]; no binding [2].
